In test [1] the target is ヒトD374Y PCSK9 (human). The test can be described thus: cell-based or functional assay.
Test [2] addresses ヒトD374Y PCSK9 (human). The test can be described thus: competition ELISA: block of biotinylated D374Y PCSK9 (20 ng/mL) binding to captured LDLR. (An ELISA detects its analyte on a solid surface through an enzyme-linked reagent.)
The target of the next test is ヒトPCSK9(野生型) (human). The test can be described thus: Biacore at pH 6.0 (HBS-P with 0.01 % BSA), fitted from competition curves, n=1. (In general: In SPR one partner is held on a chip, and binding of the other changes the refractive index at the surface.)

細胞LDL取り込みアッセイ(HepG2、LDL-BODIPY)のIC50, IC50 and Kd data for five substances are collected here from JP2016528193A.

As a reminder, the IC50 is the concentration at which inhibition is half-maximal. Higher therefore signals lower potency. As a reminder, the Kd is a measure of binding affinity in units of concentration.

For the substance 31H4 IgG4 (antibody), the 細胞LDL取り込みアッセイ(HepG2、LDL-BODIPY)のIC50 with ヒトD374Y PCSK9 (human) [1] came out at 13.3 nM. In the test with ヒトD374Y PCSK9 (human) [2], this substance registered an IC50 of 0.156 nM. In turn, 21B12 (antibody) displayed a Kd in the test with ヒトPCSK9(野生型) (human) of 0.0073 nM. For 31H4 IgG2 (antibody), the 細胞LDL取り込みアッセイ(HepG2、LDL-BODIPY)のIC50 in the test with ヒトD374Y PCSK9 (human) [1] was determined as 16.7 nM. In addition, in the test with ヒトD374Y PCSK9 (human) [2], the IC50 stood at 0.199 nM. In the same order, the values of 21B12 IgG2 (antibody) are 13.3 nM and 0.17 nM.

With 21B12 IgG4 (antibody), in the test with ヒトD374Y PCSK9 (human) [1], the 細胞LDL取り込みアッセイ(HepG2、LDL-BODIPY)のIC50 worked out at 18 nM. In the test with ヒトD374Y PCSK9 (human) [2], the half-inhibitory concentration (IC50) came to 0.169 nM.
